# According to the supplement of paper PMC12338614:
# ± gives the uncertainty stated by the source.
# B1: library; numbered along this chain (parent)
# chain: MEVVDPQQLGMFTEGELMSVGMDTFIHRIDSTEVIYQPRRKRAKLIGKYLMGDLLGEGSYGKVKEVLDSETLCRRAVKILKKKKLRRIPNGEANVKKEIQLLRRLRHKNVIQLVDVLYNEEKQKMYMVMEYCVCGMQEMLDSVPEKRFPVCQAHGYFCQLIDGLEYLHSQGIVHKDIKPGNLLLTTGGTLKISDLGVAEALHPFAADDTCRTSQGSPAFQPPEIANGLDTFSGFKVDIWSAGVTLYNITTGLYPFEGDNIYKLFENIGKGSYAIPGDCGPPLSDLLKGMLEYEPAKRFSIRQIRQHSWFRKKHPPAEAPVPIPPSPDTKDRWRSMTVVPYLEDLHGADEDEDLFDIEDDIIYTQDFTVPGQVPEEEASHNGQRRGLPKAVCMNGTEAAQLSTKSRAEGRAPNPARKACSASSKIRRLSACKQQ
# Variants of: B1
# Assay: STK11 functional score (HeLa growth suppression), rescaled enrichment; synonymous median = 1, nonsense median = 0 (normalised score)
# Details: with HeLa; variant type: missense
# Description: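 Deep mutational scan (TileSeq/POPCode codon randomisation) of full-length codon-optimised STK11 cDNA integrated at a Bxb1 landing pad (AAVS1) in HeLa cells. Restoring functional STK11 suppresses HeLa proliferation. Variant frequencies were measured by NGS before and after about two weeks of growth. The error-corrected enrichment log-ratio was rescaled so that synonymous median = 1 and nonsense median = 0, scores above 1 were compressed, and codon-level and three biological replicate scores were combined; error is the bootstrapped standard error. Scale: synonymous median = 1, nonsense median = 0; below 0.5 = damaging.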
row,Variant,STK11 functional score
1,MEVVDPQQLGMFTEGELMSVGMDTFIHRIDSTEVIYQPRRKRAKLIGKYLMGDLLGEGSYGKVKEVLDSETLCRRAVKILKKKKLRRIPNGEANVKKEIQLLRRLRHKNVIQLVDVLYNEEKQKMYMVMEYCVCGMQEMLDSVPEKRFPVCQAHGYFCQLIDGLEYLHSQGIVHKDIKPGNLLLTTGGTLKISDLGVAEALEPFAADDTCRTSQGSPAFQPPEIANGLDTFSGFKVDIWSAGVTLYNITTGLYPFEGDNIYKLFENIGKGSYAIPGDCGPPLSDLLKGMLEYEPAKRFSIRQIRQHSWFRKKHPPAEAPVPIPPSPDTKDRWRSMTVVPYLEDLHGADEDEDLFDIEDDIIYTQDFTVPGQVPEEEASHNGQRRGLPKAVCMNGTEAAQLSTKSRAEGRAPNPARKACSASSKIRRLSACKQQ [H202E],1.47 ± 0.23
2,MEVVDPQQLGMFTETELMSVGMDTFIHRIDSTEVIYQPRRKRAKLIGKYLMGDLLGEGSYGKVKEVLDSETLCRRAVKILKKKKLRRIPNGEANVKKEIQLLRRLRHKNVIQLVDVLYNEEKQKMYMVMEYCVCGMQEMLDSVPEKRFPVCQAHGYFCQLIDGLEYLHSQGIVHKDIKPGNLLLTTGGTLKISDLGVAEALHPFAADDTCRTSQGSPAFQPPEIANGLDTFSGFKVDIWSAGVTLYNITTGLYPFEGDNIYKLFENIGKGSYAIPGDCGPPLSDLLKGMLEYEPAKRFSIRQIRQHSWFRKKHPPAEAPVPIPPSPDTKDRWRSMTVVPYLEDLHGADEDEDLFDIEDDIIYTQDFTVPGQVPEEEASHNGQRRGLPKAVCMNGTEAAQLSTKSRAEGRAPNPARKACSASSKIRRLSACKQQ [G15T],1.68 ± 0.17
3,MEVVDPQQLGMFTEGELMSVGMDTFIHRIDSTEVIYQPRRKRAKLIGKYLMGDLLGEGSYGKVKEVLDSETLCRRAVKILKKKKLRRIPNGEANVKKEIQLLRRLRHKNVIQLVDVLYNEEKQKMYMVMEYCVCGMQEMLDSVPEKRFPVCQAHGYFCQLIDGLEYLHSQGIVHKDIKPGNLLLTTGGTLKISDLGVAEALHPFAADDTCRTSQGSPAFQPPEIANGLDTFSGFKVDIWSAGVTLYNITTGLYPFEGDNIYKLFENIGKGSYAIPGDCGPPLSDLLKGMLEYEPAKRFSIRQIRQHSWFRKKHPPAEAPVPIPPSPDTKDRWRSMTVVPYLEDLHGADEDEDLFDIEDDIIYTQDFTVPFQVPEEEASHNGQRRGLPKAVCMNGTEAAQLSTKSRAEGRAPNPARKACSASSKIRRLSACKQQ [G370F],1.5 ± 0.27
4,MEVVDPQQLGMFTEGELMSVGMDTFIHRIDSTEVIYQPRRKRAKLIGKYLMGDLLGEGSYGKVKEVLDSETLCRRAVKILKKKKLRRIPNGEANVKKEIQLLRRLRHKNVIQLVDRLYNEEKQKMYMVMEYCVCGMQEMLDSVPEKRFPVCQAHGYFCQLIDGLEYLHSQGIVHKDIKPGNLLLTTGGTLKISDLGVAEALHPFAADDTCRTSQGSPAFQPPEIANGLDTFSGFKVDIWSAGVTLYNITTGLYPFEGDNIYKLFENIGKGSYAIPGDCGPPLSDLLKGMLEYEPAKRFSIRQIRQHSWFRKKHPPAEAPVPIPPSPDTKDRWRSMTVVPYLEDLHGADEDEDLFDIEDDIIYTQDFTVPGQVPEEEASHNGQRRGLPKAVCMNGTEAAQLSTKSRAEGRAPNPARKACSASSKIRRLSACKQQ [V116R],0.888 ± 0.12
5,MEVVDPQQLGMFTEGELMSVGMDTFIHRIDSTEVIYQPRRKRAKLIGKYLMGDLLGEGSYGKVKEVLDSETLCRRAVKILKKKKLRRIPNGEANVKKEIQLLRRLRHKNVIQLVDVLYNEEKQKMYMVMEYNVCGMQEMLDSVPEKRFPVCQAHGYFCQLIDGLEYLHSQGIVHKDIKPGNLLLTTGGTLKISDLGVAEALHPFAADDTCRTSQGSPAFQPPEIANGLDTFSGFKVDIWSAGVTLYNITTGLYPFEGDNIYKLFENIGKGSYAIPGDCGPPLSDLLKGMLEYEPAKRFSIRQIRQHSWFRKKHPPAEAPVPIPPSPDTKDRWRSMTVVPYLEDLHGADEDEDLFDIEDDIIYTQDFTVPGQVPEEEASHNGQRRGLPKAVCMNGTEAAQLSTKSRAEGRAPNPARKACSASSKIRRLSACKQQ [C132N],1.23 ± 0.38
6,MEVVDPQQLGMFTEGELMSVGMDTFIHRIDSTEVIYQPRRKRAKLIGKYLMGDLLGEGSYGKVKEVLDSETLCRRAVKILKKKKLRRIPNGEANVKKEIQLLRRLRHKNVIQLVDVLYNEEKQKMYMVMEYCVCGMQEMLDSVPEKRFPVCQAHGYFCQLIDGLEYLHSQGIVHKDIKPGNLLLTTGGTLKISDLGVAEALHPFAADDTCRTSQGSPAFQPPEIANGLDTFSGFKVDIWSAGVTLYNITTGLYPHEGDNIYKLFENIGKGSYAIPGDCGPPLSDLLKGMLEYEPAKRFSIRQIRQHSWFRKKHPPAEAPVPIPPSPDTKDRWRSMTVVPYLEDLHGADEDEDLFDIEDDIIYTQDFTVPGQVPEEEASHNGQRRGLPKAVCMNGTEAAQLSTKSRAEGRAPNPARKACSASSKIRRLSACKQQ [F255H],0.97 ± 0.25
7,MEVVDPQQLGMFTEGELMSVGMDTFIHRIDSTEVIYQPRRKRAKLIGKYLMGDLLGEGSYGKVKEVLDSETLCRRAVKILKKKKLRRIPNGEANVKKEIQLLRRLRHKNVIQLVDVLYNEEKQKMYMVMEYCVCGMQEMLDSVPEKRFPVCQAHGYFCQLIDGLEYLHSQGIVHKDIKPGNLLLTTGGTLKISDLGVAEALHPFAADDTCRDSQGSPAFQPPEIANGLDTFSGFKVDIWSAGVTLYNITTGLYPFEGDNIYKLFENIGKGSYAIPGDCGPPLSDLLKGMLEYEPAKRFSIRQIRQHSWFRKKHPPAEAPVPIPPSPDTKDRWRSMTVVPYLEDLHGADEDEDLFDIEDDIIYTQDFTVPGQVPEEEASHNGQRRGLPKAVCMNGTEAAQLSTKSRAEGRAPNPARKACSASSKIRRLSACKQQ [T212D],1.48 ± 0.21
8,MEVVDPQQLGMFTEGELMSVGMDTFIHRIDSTEVIYQPRRKRAKLIGKYLMGDLLGEGSYGKVKEVLDSETLCRRAVKILKKKKLRRIPNNEANVKKEIQLLRRLRHKNVIQLVDVLYNEEKQKMYMVMEYCVCGMQEMLDSVPEKRFPVCQAHGYFCQLIDGLEYLHSQGIVHKDIKPGNLLLTTGGTLKISDLGVAEALHPFAADDTCRTSQGSPAFQPPEIANGLDTFSGFKVDIWSAGVTLYNITTGLYPFEGDNIYKLFENIGKGSYAIPGDCGPPLSDLLKGMLEYEPAKRFSIRQIRQHSWFRKKHPPAEAPVPIPPSPDTKDRWRSMTVVPYLEDLHGADEDEDLFDIEDDIIYTQDFTVPGQVPEEEASHNGQRRGLPKAVCMNGTEAAQLSTKSRAEGRAPNPARKACSASSKIRRLSACKQQ [G91N],1.38 ± 0.089
9,MEVVDPQQLGMFTEGELMSVGMDTFIHRIDSTEVIYQPRRKRAKLIGKYLMGDLLGEGSYGKVKEVLDSETLCRRAVKILKKKKLRRIPNGEANVKKEIQLLRRLRHKNVIQLVDVLYNEEKQKMYMVMEYCVCGMQEMLDSVPEKRFPVCQAHGYFCQLIDGLEYLHSQGIVHKDIKPGNLLLTTGGTLKISDLGVAEALHPFAADDTCRTSQGSPAFQPPEIANGLTTFSGFKVDIWSAGVTLYNITTGLYPFEGDNIYKLFENIGKGSYAIPGDCGPPLSDLLKGMLEYEPAKRFSIRQIRQHSWFRKKHPPAEAPVPIPPSPDTKDRWRSMTVVPYLEDLHGADEDEDLFDIEDDIIYTQDFTVPGQVPEEEASHNGQRRGLPKAVCMNGTEAAQLSTKSRAEGRAPNPARKACSASSKIRRLSACKQQ [D229T],1.67 ± 0.13
10,MEVVDPQQLGMFTEGELMSVGMDTFIHRIDSTEVIYQPRRKRAKLIGKYLMGDLLGEGSYGKVKEVLDSETLCRRAVKILKKKKLRRIPNGEANVKKEIQLLRRLRHKNVIQLVDVLYNEEKQKMYMVMEYCVCGMQEMLDSVPEKRFPVCQAHGYFCQLIDGLEYLHSQGIVHKDIKPGNLLLTTGGTLKISDLGVAEALHPFAADDTCRTSQGSPAFQPPEIANGLDTFSGFKVDIWSAGVTLYNITTGLYPFEGDNIYKLFENIGKGSYAIPGDCGPPLSDLLKGMLEYEPAKRFSIRQIRQHSWFRKKHPPAEAPVPIPPSPDTKDRWRSMTVVPYLEDLHGADEDEDLFDIEDDIIYTQDFTVPGQVPEEEASHNGQRRGLPKAVCMNGTEAAQLSTKSRAEGRAPNPATKACSASSKIRRLSACKQQ [R415T],0.914 ± 0.57
11,MEVVDPQQLGMFTEGELMSVGMDTFIHRIDSTEVIYQPRRKRAKLIGKYLMGDLLGEGSYGKVKEVLDSETLCRRAVKILKKKKLRRIPNGEANVKKEIQLLRRLRHKNVIQLVDVLYNEEKQKMYMVMEYCVCGMQEMLDSVPEKRFPVCQPHGYFCQLIDGLEYLHSQGIVHKDIKPGNLLLTTGGTLKISDLGVAEALHPFAADDTCRTSQGSPAFQPPEIANGLDTFSGFKVDIWSAGVTLYNITTGLYPFEGDNIYKLFENIGKGSYAIPGDCGPPLSDLLKGMLEYEPAKRFSIRQIRQHSWFRKKHPPAEAPVPIPPSPDTKDRWRSMTVVPYLEDLHGADEDEDLFDIEDDIIYTQDFTVPGQVPEEEASHNGQRRGLPKAVCMNGTEAAQLSTKSRAEGRAPNPARKACSASSKIRRLSACKQQ [A153P],-0.338 ± 0.074
12,MEVVDPQQLGMFTEGELMSVGMDTFIHRIDSLEVIYQPRRKRAKLIGKYLMGDLLGEGSYGKVKEVLDSETLCRRAVKILKKKKLRRIPNGEANVKKEIQLLRRLRHKNVIQLVDVLYNEEKQKMYMVMEYCVCGMQEMLDSVPEKRFPVCQAHGYFCQLIDGLEYLHSQGIVHKDIKPGNLLLTTGGTLKISDLGVAEALHPFAADDTCRTSQGSPAFQPPEIANGLDTFSGFKVDIWSAGVTLYNITTGLYPFEGDNIYKLFENIGKGSYAIPGDCGPPLSDLLKGMLEYEPAKRFSIRQIRQHSWFRKKHPPAEAPVPIPPSPDTKDRWRSMTVVPYLEDLHGADEDEDLFDIEDDIIYTQDFTVPGQVPEEEASHNGQRRGLPKAVCMNGTEAAQLSTKSRAEGRAPNPARKACSASSKIRRLSACKQQ [T32L],1.16 ± 0.37
13,MEVVDPQQLGMFTEGELMSVGMDTFIHRIDSTEVIYQPRRKRAKLIGKYLMGDLLGEGSYGKVKEVLDSETLCRRAVKILKKKKLRRIPNGEANVKKEIQLLRRLRHKNVIQLVDVLYNEEKQKMYMVMEYCVCGMQEMLDSVPEKRFPVCQAHGYFCQLIDGLEYLHSQGIVHKDIKPGNLLLTTGGTLKISDLGVAEALHPFAADDTCRTSQGSPAFQPPEIANGLDTFSGFKVDIWSAGVTMYNITTGLYPFEGDNIYKLFENIGKGSYAIPGDCGPPLSDLLKGMLEYEPAKRFSIRQIRQHSWFRKKHPPAEAPVPIPPSPDTKDRWRSMTVVPYLEDLHGADEDEDLFDIEDDIIYTQDFTVPGQVPEEEASHNGQRRGLPKAVCMNGTEAAQLSTKSRAEGRAPNPARKACSASSKIRRLSACKQQ [L245M],0.526 ± 0.22
14,MEVVDPQQLGMFTEGELMSVGMDTFIHRIDSTEVIYQPRRKRAKLIGKYLMGRLLGEGSYGKVKEVLDSETLCRRAVKILKKKKLRRIPNGEANVKKEIQLLRRLRHKNVIQLVDVLYNEEKQKMYMVMEYCVCGMQEMLDSVPEKRFPVCQAHGYFCQLIDGLEYLHSQGIVHKDIKPGNLLLTTGGTLKISDLGVAEALHPFAADDTCRTSQGSPAFQPPEIANGLDTFSGFKVDIWSAGVTLYNITTGLYPFEGDNIYKLFENIGKGSYAIPGDCGPPLSDLLKGMLEYEPAKRFSIRQIRQHSWFRKKHPPAEAPVPIPPSPDTKDRWRSMTVVPYLEDLHGADEDEDLFDIEDDIIYTQDFTVPGQVPEEEASHNGQRRGLPKAVCMNGTEAAQLSTKSRAEGRAPNPARKACSASSKIRRLSACKQQ [D53R],1.58 ± 0.26
